The values that follow are results of earlier work, collected in publication PMC3037977.

Where two headings read alike, the source gives them in different places.

The target in data set [1] is importin β (Homo sapiens) (UniProt Q14974).
Data set [2] has the same target. The source holds these as a separate data set.

Sequence of importin β (Homo sapiens) (Q14974 whole entry): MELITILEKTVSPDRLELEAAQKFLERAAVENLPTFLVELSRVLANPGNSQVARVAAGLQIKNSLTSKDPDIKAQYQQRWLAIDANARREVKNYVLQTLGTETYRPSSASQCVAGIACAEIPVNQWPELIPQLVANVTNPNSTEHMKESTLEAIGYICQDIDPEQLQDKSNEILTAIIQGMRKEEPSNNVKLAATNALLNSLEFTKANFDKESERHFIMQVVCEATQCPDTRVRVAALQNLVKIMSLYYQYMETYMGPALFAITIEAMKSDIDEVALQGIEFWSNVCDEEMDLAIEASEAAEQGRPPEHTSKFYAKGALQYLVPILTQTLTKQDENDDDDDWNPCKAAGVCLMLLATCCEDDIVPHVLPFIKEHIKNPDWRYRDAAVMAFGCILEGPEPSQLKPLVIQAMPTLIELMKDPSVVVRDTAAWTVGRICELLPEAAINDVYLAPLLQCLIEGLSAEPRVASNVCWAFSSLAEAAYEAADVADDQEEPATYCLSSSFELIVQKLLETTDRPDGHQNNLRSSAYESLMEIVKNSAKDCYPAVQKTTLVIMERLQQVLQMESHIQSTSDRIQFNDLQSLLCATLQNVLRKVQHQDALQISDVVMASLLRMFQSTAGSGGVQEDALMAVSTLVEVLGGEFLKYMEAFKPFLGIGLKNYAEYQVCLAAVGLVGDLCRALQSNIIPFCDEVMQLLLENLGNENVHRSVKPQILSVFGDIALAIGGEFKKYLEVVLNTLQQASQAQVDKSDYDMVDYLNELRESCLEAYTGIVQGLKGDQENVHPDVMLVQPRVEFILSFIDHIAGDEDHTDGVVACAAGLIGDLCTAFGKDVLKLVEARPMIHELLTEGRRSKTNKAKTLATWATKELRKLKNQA
Sequence of snurportin IBB domain (O95149 8-76): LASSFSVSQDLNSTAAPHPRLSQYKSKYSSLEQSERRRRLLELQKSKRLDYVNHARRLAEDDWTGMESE

With “snurportin IBB domain (from UniProt O95149)”, the dissociation constant (Kd) in data set [1] is 2 nM.
Take “importin α1 IBB domain (from UniProt P52292)”: the Kd in data set [2] was 2 nM.
